Test results as given in paper PMC3646955.

Key:
Assay in all cases: purified protein
Assay type in all cases: biochemical, Serratia marcescens
[1] = test system: CCN[C@@H]1C[C@H](N)[C@@H](O[C@H]2OC(CN)=CC[C@H]2N)[C@H](O)[C@H]1O[C@H]1OC[C@](C)(O)[C@H](NC)[C@H]1O; settings: 500 μM acetyl-CoA
[2] = test system: CN[C@@H]1[C@@H](O)[C@@H](O[C@@H]2[C@@H](O)[C@H](O[C@H]3OC(CN)=CC[C@H]3N)[C@@H](N)C[C@H]2N)OC[C@]1(C)O; settings: 500 μM acetyl-CoA
[3] = test system: NCC[C@H](O)C(=O)N[C@@H]1C[C@H](N)[C@@H](O[C@H]2O[C@H](CN)[C@@H](O)[C@H](O)[C@H]2O)[C@H](O)[C@H]1O[C@H]1O[C@H](CO)[C@@H](O)[C@H](N)[C@H]1O; settings: 500 μM acetyl-CoA, 50 mM HEPES pH 7.5, AAC(6′) domain
[4] = test system: NC[C@H]1O[C@H](O[C@H]2[C@H](O)[C@@H](O[C@H]3O[C@H](CO)[C@@H](O)[C@H](N)[C@H]3O)[C@H](N)C[C@@H]2N)[C@H](N)C[C@@H]1O; settings: 500 μM acetyl-CoA
[5] = test system: NC[C@@H]1O[C@H](O[C@H]2[C@@H](O)[C@H](O[C@@H]3[C@@H](O)[C@H](N)C[C@H](N)[C@H]3O[C@H]3O[C@H](CN)[C@@H](O)[C@H](O)[C@H]3N)O[C@@H]2CO)[C@H](N)[C@@H](O)[C@@H]1O; settings: 500 μM acetyl-CoA, 50 mM HEPES pH 7.5
[6] = test system: NC[C@H]1O[C@H](O[C@H]2[C@H](O[C@@H]3O[C@H](CO)[C@@H](O)[C@H]3O)[C@@H](O)[C@H](N)C[C@@H]2N)[C@H](N)[C@@H](O)[C@@H]1O; settings: 500 μM acetyl-CoA, 50 mM HEPES pH 7.5
[7] = test system: CN[C@@H]1[C@H](O)[C@H](NC)[C@H]2O[C@@]3(O)C(=O)C[C@@H](C)O[C@H]3O[C@@H]2[C@H]1O; settings: 200 μM ATP, 50 mM Tris-HCl pH 7.5, 10 mM MgCl2, 50 mM KCl, 25 °C
[8] = test system: Nc1ccn([C@@H]2O[C@H](COP(=O)(O)OP(=O)(O)OP(=O)(O)O)[C@@H](O)[C@H]2O)c(=O)n1; settings: 750 μM SPT, 50 mM Tris-HCl pH 7.5, 10 mM MgCl2, 50 mM KCl, 25 °C
[9] = test system: O=P(O)(O)OP(=O)(O)OP(=O)(O)OC[C@H]1O[C@@H](n2cnc3c(O)ncnc32)[C@H](O)[C@@H]1O; settings: 750 μM SPT, 50 mM Tris-HCl pH 7.5, 10 mM MgCl2, 50 mM KCl, 25 °C
[10] = test system: O=c1ccn([C@@H]2O[C@H](COP(=O)(O)OP(=O)(O)OP(=O)(O)O)[C@@H](O)[C@H]2O)c(=O)[nH]1; settings: 750 μM SPT, 50 mM Tris-HCl pH 7.5, 10 mM MgCl2, 50 mM KCl, 25 °C
[11] = 50 mM HEPES pH 7.5, AAC(6′) domain

Substance: NHis10-tagged ANT(3″)-Ii/AAC(6′)-IId (Serratia marcescens)
- Km [1, 11]: 1.77 ± 0.41 µM
- kcat [1, 11]: 1.91 ± 0.08 s⁻¹
- kcat/Km [1, 11]: 1.08e+06 ± 250000 M⁻¹ s⁻¹
- Km [2, 11]: 2.20 ± 0.60 µM
- kcat [2, 11]: 2.93 ± 0.16 s⁻¹
- kcat/Km [2, 11]: 1.33e+06 ± 370000 M⁻¹ s⁻¹
- Km [3]: 0.556 ± 0.130 µM
- kcat [3]: 2.92 ± 0.1 s⁻¹
- kcat/Km [3]: 5.25e+06 ± 1.25e+06 M⁻¹ s⁻¹
- Km [4, 11]: 7.92 ± 0.53 µM
- kcat [4, 11]: 3.84 ± 0.07 s⁻¹
- kcat/Km [4, 11]: 485000 ± 34000 M⁻¹ s⁻¹

Substance: NHis6-tagged AAC(6′)-IId(267-463) (Serratia marcescens)
- Km ([1]; 50 mM HEPES pH 7.5): 3.87 ± 0.90 µM
- kcat ([1]; 50 mM HEPES pH 7.5): 3.21 ± 0.2 s⁻¹
- kcat/Km ([1]; 50 mM HEPES pH 7.5): 829000 ± 200000 M⁻¹ s⁻¹
- Km ([2]; 50 mM HEPES pH 7.5): 4.92 ± 1.14 µM
- kcat ([2]; 50 mM HEPES pH 7.5): 5.35 ± 0.27 s⁻¹
- kcat/Km ([2]; 50 mM HEPES pH 7.5): 1.09e+06 ± 260000 M⁻¹ s⁻¹
- Km [5]: 32.1 ± 11.1 µM
- kcat [5]: 11.1 ± 1 s⁻¹
- kcat/Km [5]: 346000 ± 124000 M⁻¹ s⁻¹
- Km ([4]; 50 mM HEPES pH 7.5): 14.8 ± 3.4 µM
- kcat ([4]; 50 mM HEPES pH 7.5): 3.73 ± 0.25 s⁻¹
- kcat/Km ([4]; 50 mM HEPES pH 7.5): 252000 ± 60000 M⁻¹ s⁻¹
- Km [6]: 69.3 ± 4.5 µM
- kcat [6]: 5.7 ± 0.12 s⁻¹
- kcat/Km [6]: 82200 ± 5600 M⁻¹ s⁻¹

Substance: CHis6-tagged ANT(3″)-Ii(1-266) (Serratia marcescens)
- Km [7]: 0.123 ± 0.015 µM
- kcat [7]: 5.13 ± 0.11 s⁻¹
- kcat/Km [7]: 4.15e+07 ± 5.1e+06 M⁻¹ s⁻¹
- Km [8]: 33.3 ± 5.6 µM
- kcat [8]: 0.709 ± 0.04 s⁻¹
- kcat/Km [8]: 21300 ± 3800 M⁻¹ s⁻¹
- Km [9]: 12.6 ± 1.5 µM
- kcat [9]: 0.481 ± 0.013 s⁻¹
- kcat/Km [9]: 38100 ± 4500 M⁻¹ s⁻¹
- Km [10]: 26.2 ± 5.7 µM
- kcat [10]: 0.603 ± 0.047 s⁻¹
- kcat/Km [10]: 23000 ± 5300 M⁻¹ s⁻¹
